Results as given in patent US20100260668A1 (published 2010).

B1: DVD460 (bispecific antibody, human IgG1, kappa)
heavy: not shown
light: DIQMTQSPSSLSASVGDRVTITCSASQDISNYLNWYQQKPGKAPKVLIYFTSSLHSGVPSRFSGSGSGTDFTLTISSLQPEDFATYYCQQYSTVPWTFGQGTKVEIKRTVAAPSVFIFPPDIVMTQSPDSLAVSLGERATISCRASESVDNYGISFMKWFQQKPGQPPKLLIYAASNQGSGVPDRFSGSGSGTDFTLTISSLQAEDVAVYYCQQSKEVPWTFGGGTKVEIKRTVAAPSVFIFPPSDEQLKSGTASVVCLLNNFYPREAKVQWKVDNALQSGNSQESVTEQDSKDSTYSLSSTLTLSKADYEKHKVYACEVTHQGLSSPVTKSFNRGEC
notes: DVD-Ig; N-term; AB014 (VEGF), C-term; AB069 (DLL4); HC linker short, LC linker long; also called DVD460H; DVD460L
B2: DVD512 (bispecific antibody, human IgG1, lambda, L234A L235A)
heavy: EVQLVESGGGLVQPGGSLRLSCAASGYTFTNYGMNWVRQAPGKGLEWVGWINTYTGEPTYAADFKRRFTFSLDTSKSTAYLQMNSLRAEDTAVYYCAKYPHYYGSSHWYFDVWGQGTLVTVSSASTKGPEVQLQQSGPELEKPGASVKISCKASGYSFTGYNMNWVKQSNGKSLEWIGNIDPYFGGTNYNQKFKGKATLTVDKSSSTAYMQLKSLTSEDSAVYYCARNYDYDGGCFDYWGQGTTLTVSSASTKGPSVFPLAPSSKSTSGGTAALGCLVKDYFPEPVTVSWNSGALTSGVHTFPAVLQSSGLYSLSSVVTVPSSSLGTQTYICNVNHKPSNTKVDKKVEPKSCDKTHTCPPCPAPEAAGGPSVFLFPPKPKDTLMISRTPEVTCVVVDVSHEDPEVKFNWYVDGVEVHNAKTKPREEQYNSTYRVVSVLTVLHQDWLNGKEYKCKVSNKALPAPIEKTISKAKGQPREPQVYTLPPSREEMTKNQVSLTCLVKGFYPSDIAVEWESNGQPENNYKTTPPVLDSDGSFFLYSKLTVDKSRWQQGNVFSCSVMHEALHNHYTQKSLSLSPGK
light: DIQMTQSPSSLSASVGDRVTITCSASQDISNYLNWYQQKPGKAPKVLIYFTSSLHSGVPSRFSGSGSGTDFTLTISSLQPEDFATYYCQQYSTVPWTFGQGTKVEIKRTVAAPQAVVTQESALTTSPGETVTLTCRSSTGAVTTSNYANWVQEKPDHLFTGLIGGTNNRAPGVPARFSGSLIGDKAALTITGAQTEDEAIYFCALWYSNHWVFGGGTKLTVLGQPKAAPSVTLFPPSSEELQANKATLVCLISDFYPGAVTVAWKADSSPVKAGVETTTPSKQSNNKYAASSYLSLTPEQWKSHRSYSCQVTHEGSTVEKTVAPTECS
notes: DVD-Ig; N-term; AB014 (VEGF), C-term; AB073 (DLL4); HC linker short, LC linker short; also called DVD512H; DVD512L
B3: DVD518 (bispecific antibody, human IgG1, kappa, lambda)
heavy: not shown
light: DIQMTQSPSSLSASVGDRVTITCSASQDISNYLNWYQQKPGKAPKVLIYFTSSLHSGVPSRFSGSGSGTDFTLTISSLQPEDFATYYCQQYSTVPWTFGQGTKVEIKRTVAAPSVFIFPPQAVVTQESALTTSPGETVTLTCRSSTGAVTTSNYANWVQEKPDHLFTGLIGGTNNRAPGVPARFSGSLIGDKAALTITGAQTEDEAIYFCALWYSNHWVFGGGTKLTVLGQPKAAPSVTLFPPSSEELQANKATLVCLISDFYPGAVTVAWKADSSPVKAGVETTTPSKQSNNKYAASSYLSLTPEQWKSHRSYSCQVTHEGSTVEKTVAPTECS
notes: DVD-Ig; N-term; AB014 (VEGF), C-term; AB073 (DLL4); HC linker long, LC linker long; also called DVD518H; DVD518L
B4: DVD524 (bispecific antibody, human IgG1, lambda)
heavy: not shown
light: B2 light
notes: DVD-Ig; N-term; AB014 (VEGF), C-term; AB073 (DLL4); HC linker long, LC linker short; also called DVD524H; DVD524L
B5: DVD530 (bispecific antibody, human IgG1, kappa, lambda, L234A L235A)
heavy: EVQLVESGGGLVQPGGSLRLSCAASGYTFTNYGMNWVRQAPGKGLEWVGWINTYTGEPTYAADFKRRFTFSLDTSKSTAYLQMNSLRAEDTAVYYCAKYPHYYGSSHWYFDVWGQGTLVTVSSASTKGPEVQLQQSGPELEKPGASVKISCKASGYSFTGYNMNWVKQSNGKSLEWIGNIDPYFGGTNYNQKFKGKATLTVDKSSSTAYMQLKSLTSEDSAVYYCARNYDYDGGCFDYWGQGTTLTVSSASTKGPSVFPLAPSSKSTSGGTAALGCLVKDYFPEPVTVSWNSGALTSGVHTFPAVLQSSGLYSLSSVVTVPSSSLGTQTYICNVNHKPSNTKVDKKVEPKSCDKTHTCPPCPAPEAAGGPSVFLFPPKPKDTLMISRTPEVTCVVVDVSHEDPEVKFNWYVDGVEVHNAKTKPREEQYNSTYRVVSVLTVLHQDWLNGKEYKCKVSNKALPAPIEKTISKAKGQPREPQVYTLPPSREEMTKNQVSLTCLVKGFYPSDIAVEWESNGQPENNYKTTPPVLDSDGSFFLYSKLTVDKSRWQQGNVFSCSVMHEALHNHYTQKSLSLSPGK
light: B3 light
notes: DVD-Ig; N-term; AB014 (VEGF), C-term; AB073 (DLL4); HC linker short, LC linker long; also called DVD530H; DVD530L
B6: DVD488 (bispecific antibody, human IgG1, kappa)
heavy: not shown
light: DIQMTQSPSSLSASVGDRVTITCSASQDISNYLNWYQQKPGKAPKVLIYFTSSLHSGVPSRFSGSGSGTDFTLTISSLQPEDFATYYCQQYSTVPWTFGQGTKVEIKRTVAAPDIQMTQSSSYLSVSLGGRVTITCKASDHINNWLAWYQQKPGNAPRLLISGATSLETGVPSRFSGSGSGKDYTLSITSLQTEDVATYYCQQYWSIPLTFGAGTKLELKRTVAAPSVFIFPPSDEQLKSGTASVVCLLNNFYPREAKVQWKVDNALQSGNSQESVTEQDSKDSTYSLSSTLTLSKADYEKHKVYACEVTHQGLSSPVTKSFNRGEC
notes: DVD-Ig; N-term; AB014 (VEGF), C-term; AB072 (DLL4); HC linker short, LC linker short; also called DVD488H; DBD488L
B7: DVD494 (bispecific antibody, human IgG1, kappa)
heavy: not shown
light: DIQMTQSPSSLSASVGDRVTITCSASQDISNYLNWYQQKPGKAPKVLIYFTSSLHSGVPSRFSGSGSGTDFTLTISSLQPEDFATYYCQQYSTVPWTFGQGTKVEIKRTVAAPSVFIFPPDIQMTQSSSYLSVSLGGRVTITCKASDHINNWLAWYQQKPGNAPRLLISGATSLETGVPSRFSGSGSGKDYTLSITSLQTEDVATYYCQQYWSIPLTFGAGTKLELKRTVAAPSVFIFPPSDEQLKSGTASVVCLLNNFYPREAKVQWKVDNALQSGNSQESVTEQDSKDSTYSLSSTLTLSKADYEKHKVYACEVTHQGLSSPVTKSFNRGEC
notes: DVD-Ig; N-term; AB014 (VEGF), C-term; AB072 (DLL4); HC linker long, LC linker long; also called DVD494H; DVD494L
B8: DVD500 (bispecific antibody, human IgG1, kappa)
heavy: not shown
light: B6 light
notes: DVD-Ig; N-term; AB014 (VEGF), C-term; AB072 (DLL4); HC linker long, LC linker short; also called DVD500H; DVD500L
B9: DVD506 (bispecific antibody, human IgG1, kappa)
heavy: not shown
light: B7 light
notes: DVD-Ig; N-term; AB014 (VEGF), C-term; AB072 (DLL4); HC linker short, LC linker long; also called DVD506H; DVD506L
B10: DVD467 (bispecific antibody, human IgG1, kappa)
heavy: not shown
light: DIQMTQSPSSLSASVGDRVTITCRASQDVSTAVAWYQQKPGKAPKLLIYSASFLYSGVPSRFSGSGSGTDFTLTISSLQPEDFATTYYCQQSYTGTVTFGQGTKVEIKRTVAAPDIQMTQSPSSLSASVGDRVTITCRASQVIRRSLAWYQQKPGKAPKLLIYAASNLASGVPSRFSGSGSGTDFTLTISSLQPEDFATYYCQQSNTSPLTFGQGTKVEIKRTVAAPSVFIFPPSDEQLKSGTASVVCLLNNFYPREAKVQWKVDNALQSGNSQESVTEQDSKDSTYSLSSTLTLSKADYEKHKVYACEVTHQGLSSPVTKSFNRGEC
notes: DVD-Ig; N-term; AB015 (DLL4), C-term; AB071 (VEGF); HC linker short, LC linker short; also called DVD467H; DVD467L
B11: DVD473 (bispecific antibody, human IgG1, kappa)
heavy: not shown
light: DIQMTQSPSSLSASVGDRVTITCRASQDVSTAVAWYQQKPGKAPKLLIYSASFLYSGVPSRFSGSGSGTDFTLTISSLQPEDFATTYYCQQSYTGTVTFGQGTKVEIKRTVAAPSVFIFPPDIQMTQSPSSLSASVGDRVTITCRASQVIRRSLAWYQQKPGKAPKLLIYAASNLASGVPSRFSGSGSGTDFTLTISSLQPEDFATYYCQQSNTSPLTFGQGTKVEIKRTVAAPSVFIFPPSDEQLKSGTASVVCLLNNFYPREAKVQWKVDNALQSGNSQESVTEQDSKDSTYSLSSTLTLSKADYEKHKVYACEVTHQGLSSPVTKSFNRGEC
notes: DVD-Ig; N-term; AB015 (DLL4), C-term; AB071 (VEGF); HC linker long, LC linker long; also called DVD473H; DVD473L
B12: DVD479 (bispecific antibody, human IgG1, kappa)
heavy: not shown
light: B10 light
notes: DVD-Ig; N-term; AB015 (DLL4), C-term; AB071 (VEGF); HC linker long, LC linker short; also called DVD479H; DVD479L
B13: DVD485 (bispecific antibody, human IgG1, kappa)
heavy: not shown
light: B11 light
notes: DVD-Ig; N-term; AB015 (DLL4), C-term; AB071 (VEGF); HC linker short, LC linker long; also called DVD485H; DVD485L
B14: DVD445 (bispecific antibody, human IgG1, kappa)
heavy: not shown
light: DIVMTQSPDSLAVSLGERATISCRASESVDNYGISFMKWFQQKPGQPPKLLIYAASNQGSGVPDRFSGSGSGTDFTLTISSLQAEDVAVYYCQQSKEVPWTFGGGTKVEIKRTVAAPDIQMTQSPSSLSASVGDRVTITCRASQVIRRSLAWYQQKPGKAPKLLIYAASNLASGVPSRFSGSGSGTDFTLTISSLQPEDFATYYCQQSNTSPLTFGQGTKVEIKRTVAAPSVFIFPPSDEQLKSGTASVVCLLNNFYPREAKVQWKVDNALQSGNSQESVTEQDSKDSTYSLSSTLTLSKADYEKHKVYACEVTHQGLSSPVTKSFNRGEC
notes: DVD-Ig; N-term; AB069 (DLL4), C-term; AB071 (VEGF); HC linker short, LC linker short; also called DVD445H; DVD445L
B15: DVD451 (bispecific antibody, human IgG1, kappa, L234A L235A)
heavy: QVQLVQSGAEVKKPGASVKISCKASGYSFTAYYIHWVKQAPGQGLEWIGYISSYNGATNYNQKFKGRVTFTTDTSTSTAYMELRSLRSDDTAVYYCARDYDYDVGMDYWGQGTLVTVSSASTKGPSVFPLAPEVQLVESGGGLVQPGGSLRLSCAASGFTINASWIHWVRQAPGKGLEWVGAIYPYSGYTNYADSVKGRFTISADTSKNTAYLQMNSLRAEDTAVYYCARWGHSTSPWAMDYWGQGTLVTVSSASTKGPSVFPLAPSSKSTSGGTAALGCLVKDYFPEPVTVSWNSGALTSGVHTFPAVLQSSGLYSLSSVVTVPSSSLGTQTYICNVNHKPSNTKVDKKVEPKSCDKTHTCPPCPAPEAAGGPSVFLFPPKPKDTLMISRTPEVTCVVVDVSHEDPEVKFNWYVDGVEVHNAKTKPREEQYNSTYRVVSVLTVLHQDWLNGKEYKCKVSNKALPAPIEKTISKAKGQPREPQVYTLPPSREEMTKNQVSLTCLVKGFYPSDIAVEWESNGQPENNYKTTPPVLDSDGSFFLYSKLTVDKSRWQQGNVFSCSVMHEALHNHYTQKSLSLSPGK
light: DIVMTQSPDSLAVSLGERATISCRASESVDNYGISFMKWFQQKPGQPPKLLIYAASNQGSGVPDRFSGSGSGTDFTLTISSLQAEDVAVYYCQQSKEVPWTFGGGTKVEIKRTVAAPSVFIFPPDIQMTQSPSSLSASVGDRVTITCRASQVIRRSLAWYQQKPGKAPKLLIYAASNLASGVPSRFSGSGSGTDFTLTISSLQPEDFATYYCQQSNTSPLTFGQGTKVEIKRTVAAPSVFIFPPSDEQLKSGTASVVCLLNNFYPREAKVQWKVDNALQSGNSQESVTEQDSKDSTYSLSSTLTLSKADYEKHKVYACEVTHQGLSSPVTKSFNRGEC
notes: DVD-Ig; N-term; AB069 (DLL4), C-term; AB071 (VEGF); HC linker long, LC linker long; also called DVD451H; DVD451L

molecular target: T1, VEGF (UniProt P15692-4 27-191); experiment: BIACORE SPR
T1 construct: Bought reagent; also called vascular endothelial growth factor
T1 sequence (P15692 other isoform, or with tags, fused parts or gaps limits assumed): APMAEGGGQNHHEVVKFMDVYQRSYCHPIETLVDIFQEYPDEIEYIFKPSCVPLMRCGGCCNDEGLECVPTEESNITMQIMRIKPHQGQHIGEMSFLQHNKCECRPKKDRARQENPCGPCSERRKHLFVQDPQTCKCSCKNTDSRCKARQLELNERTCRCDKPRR

B1 was tested. Which Kd did it give?
Its Kd is 0.174 nM.

What about the koff of the same binder?
The koff was 0.000228 s⁻¹.

And the kon?
The kon was 1.32e+06 M⁻¹ s⁻¹.

B2 was tested. Which Kd did it give?
Its Kd is 0.153 nM.

And the koff?
The koff was 0.000143 s⁻¹.

And the kon?
The kon was 939000 M⁻¹ s⁻¹.

What does the source list for B3?
Kd: 0.434 nM; koff: 0.125 s⁻¹; kon: 2.88e+08 M⁻¹ s⁻¹

With B4 as the binder, how does the Kd read?
The Kd was 0.113 nM.

And the koff?
Its koff is 0.000188 s⁻¹.

And the kon?
Its kon is 1.67e+06 M⁻¹ s⁻¹.

Which Kd does the source give for B5 here?
The Kd was 0.136 nM.

And the koff?
The koff was 0.000171 s⁻¹.

What about the kon of the same binder?
The kon was 1.26e+06 M⁻¹ s⁻¹.

B6 was tested. Which Kd did it give?
Its Kd is 0.536 nM.

And the koff?
Its koff is 0.000374 s⁻¹.

And the kon?
The kon was 699000 M⁻¹ s⁻¹.

How did the Kd turn out when B7 was run?
The Kd was 0.566 nM.

What about the koff of the same binder?
Its koff is 0.0176 s⁻¹.

What about the kon of the same binder?
The kon was 3.11e+07 M⁻¹ s⁻¹.

Which Kd does the source give for B8 here?
Its Kd is 0.504 nM.

And the koff?
Its koff is 0.000248 s⁻¹.

And the kon?
Its kon is 492000 M⁻¹ s⁻¹.

Which results are given for B9?
Kd: 0.281 nM; koff: 0.000171 s⁻¹; kon: 606000 M⁻¹ s⁻¹

With B10 as the binder, how does the Kd read?
The Kd was 1.33 nM.

And the koff?
The koff was 0.000236 s⁻¹.

What about the kon of the same binder?
The kon was 177000 M⁻¹ s⁻¹.

What does the source list for B11?
Kd: 1.27 nM; koff: 0.000265 s⁻¹; kon: 209000 M⁻¹ s⁻¹

Which results are given for B12?
Kd: 0.86 nM; koff: 0.000257 s⁻¹; kon: 299000 M⁻¹ s⁻¹

B13 was tested. Which Kd did it give?
The Kd was 0.372 nM.

What does the source list for B14?
Kd: 0.272 nM; koff: 1.8 s⁻¹; kon: 6.64e+09 M⁻¹ s⁻¹

How did the Kd turn out when B15 was run?
The Kd was 0.0115 nM.

And the koff?
The koff was 1.06e-06 s⁻¹.

What about the kon of the same binder?
Its kon is 92200 M⁻¹ s⁻¹.
